From a protein production outcome set (Wang et al. 2014)

test: label from the status in PepcDB records

Question: With “MHSLARRALHTCNVPRDLNPVTFCDTAGEHPDRVGLDSNAAEAVWRSVEALYRTGVHPGIQLSLRYRGEQVLHRSIGHARGNGPHDPASLPRIPMTTDTPICFFSASKAVTALLMHMLSEQGLVNLMDPVSYYCPEFARNGKRTITVHQILSHRGGIPAIPRETPIDVLWDRDEIWRLLCAAKPVEVDGAKVAYHAITGGFVLQRVLEKVTGDTIESYLDRYLRRPMGMKWFTYGIAPEHLHELASNYATGPTPRFPVSWVVNRALGGDIRTVEKVTNDPRFQEAVIPAGNLCGTAEEMGRFFQMMLNGGSWDGKRICSELTVRRAIQQFGSLQMDRTMLVPMRFSAGMMLGSNPVGLWGQQSRYAFGHVGLINKLCWADPARDISVSLLNTGFPIVGHHLPALARFVYTVCKQFPVLPENQRRLVAA” as the sequence, how does the protein production read?
Answer: Its protein production is “failed”.

Question: With “MHSMKLLVTGGMGFIGSNFIRYILEKHPDWEVINIDKLGYGSNPANLKDLEDDPRYTFVKGDVADYELVKELVRKVDGVVHLAAESHVDRSISSPEIFLHSNVIGTYTLLESIRRENPEVRFVHVSTDEVYGDILKGSFTENDRLMPSSPYSATKAASDMLVLGWTRTYNLNASITRCTNNYGPYQFPEKLIPKTIIRASLGLKIPIYGTGKNVRDWLYVEDHVRAIELVLLKGESREIYNISAGEEKTNLEVVKIILRLMGKGEELIELVEDRPGHDLRYSLDSWKITRDLKWRPKYTFDEGIKKTIDWYLKNEWWWKPLVDERILHPTPWKLKW” as the sequence, how does the protein production read?
Answer: The protein production was “not failed”.

Question: For “MHSPLELTLVLLAAAVIGVVLFRMLQLPPMLAYLVVGVVIGPNATGLESDSAQTRYLAEFGVVFLMFSIGLEFSLAKLRSMRRLVLGLGASQVVLTMLLTVPASLLLSRWYPLSWQASLALGGALAMSSTAIVSKMLAERLQLETEHGRNIISVLLFQDLAVVLLLIVVPSLGKNPTDLVLTLSIAAVKIIVALVLILFLGQKLLSRWFHLVAARRSQELFMLNLLLVTLGMAALTERLGLSMALGAFLAGMLVSETPYRLQVEEDIKPFRDVLLGLFFVTVGMLLDPRVVIGHWGLVIGLVIGPVLFKFALIALLARAFGSGGGTAIRTALGLAQAGEFGFVLLNQIDGMRLIDPLLSQAILAAMLLSMLLAPFLIQYSDAIAMRLSRTDWLMQSLAMTKIAAQSLQTERHVIICGYGRSGQNLAHMLEQEDISYVALDLDPDRVRDAAAAGERVVYGDAARRESLVAAGVHRAAAVAVTYADTASALKVLHHVQALAPTLPVIVRTIDDADLDRLQQAGAAEVVPEIIEGSLMLASHALVLLGVPLRRVVRRAQEMRDARYGLLRGYFHGQDDDEDMLERDAVRLHSVPLIKGSPAIGRPLGTLGLETFKTSVTAIRRQGIRALDPEPNTLLELGDIVVLRGTPDGLQQAEERLSPR”, which protein production is on record?
Answer: The protein production was “failed”.

Question: Which protein production does the source give for “MHSPQISPPIAPSTPLLAGWRSAGKAPEAAIRGEAVSLQPLDAPRHGAALFRLFAGDDSHWEHLPYGPFEDEDAFITWLALTVAQSDTALYVVCAKDSDQALGFLGYRQMVQAHGAIEIGHVNFSPALRRTRLATEAVFLLLKTAFELGYRRCEWRCDSRNAASAAAARRFGFQFEGTLRQAMVVKRRNRDTHVFSMLDGEWDALK” here?
Answer: The protein production was “not failed”.

Question: Which protein production does the source give for “MHSQFAPRLRQLRWYEIVLIATVAAALCIYLPIVVKRSAVQGFGDVQVFFRAAWAVWTGYPLYQVADHHGWTYHYPPTFALLMGPFAHPLDGFPKPDWALSLPLSVATWYVFSAAAMLAAVDLWARGLERALPPSLDQADWSAWWLLRLGPVAALLPFFGDGLGRGQPSAVVLLTMVAFLVLYLRGRIYLAACALALGFTIKLFPLALLIFPVLRRDLRTVLATFGFSAVFLFVVPMLCLGPSEVVKLYGAMWTEHLSGIFTGVPNPKIADEITFTSYDMLSIGAMLARIAAGGLPETDTLPRFATICQLMFDAVVIGALLWLGHGRFWRLRGPQPPLGPSLLIGGALLCAALPVMLSVSQPNYVAFAAPLVALVQFEVWRRRGRVCVVPALIAWSGLMWLGMIATEGGAWQPLRVVGLVTPALIALLLWGFASLRRAAAPP” here?
Answer: Its protein production is “failed”.

Question: Which protein production does the source give for “MHSQIWVVSTLLISIVLIVLTIVKFKFHPFLALLLASFFVGTMMGMGPLDMVNAIESGIGGTLGFLAAVIGLGTILGKMMEVSGAAERIGLTLQRCRWLSVDVIMVLVGLICGITLFVEVGVVLLIPLAFSIAKKTNTSLLKLAIPLCTALMAVHCVVPPHPAALYVANKLGADIGSVIVYGLLVGLMASLIGGPLFLKFLGQRLPFKPVPTEFADLKVRDEKTLPSLGATLFTILLPIALMLVKTIAELNMARESGLYILVEFIGNPITAMFIAVFVAYYVLGIRQHMSMGTMLTHTENGFGSIANILLIIGAGGAFNAILKSSSLADTLAVILSNMHMHPILLAWLVALILHAAVGSATVAMMGATAIVAPMLPLYPDISPEIIAIAIGSGAIGCTIVTDSLFWLVKQYCGATLNETFKYYTTATFIASVVALAGTFLLSFII” here?
Answer: Its protein production is “failed”.

Question: With “MHSREYPFMLASMMFDFACLQISSLWERLLGAIGDAAGNALGRVVEAIRTLFEGDPETRRKVSFSVAIIALSAKMAKADGVVNDAEVRAFRQIFDFPDEEAKNVARLYNLARQDVAGYEAYAERLAGLCGSGHANCEMLESVIDGLFHIAKADGLIHERELAFLGRIAEIFRITEDHFETIMARHVHMDGRDPYRVLGVSPSDDFLDIRKRYRSLVAEHHPDKLIARGVPMELHAAANERMAALNAAYAAIEKERRVA” as the sequence, how does the protein production read?
Answer: Its protein production is “failed”.

Question: For “MHTLNLGILAHVDAGKTSLTERLLHTVGVIDEIGSVDEGNTQTDSLALERQRGITIKSAVVSFAINDTTVNLIDTPGHPDFIAEVERVLSVLDGAVLVVSAVEGVQAQTRVLLRTLQRLRIPTLLFVNKIDRGGAGEERVLRAIAARLTPAIVPMGRAAGPGSRDARFIPYEAHDPGFGARLLDVLTEHDEELLAAYVKDTVSYGRLRTALVEQTRQALVHPVFFGSATTGAGVPELIAGIKELLPAAEGDPDGPVSGTVFKVERGPAGEKIAYARLFSGTVRTRDRLLFRDGEEGKVTAISVFDQGSAVREASVAAGRIGKLWGLAEIRIGDTFGEVPKAAEPSRHFSPPTLETVVVPGGRSDGGALHLALTQLAEQDPLINMRQDEIRREISLSLYGEVQKEVIQATLADAFGLDVTFRETTPICVERPVGTGAAVEFNGKGPHPFLATVGLRVEAAPVGSGVEFRLEVELGAMPYAFFKAVEDTVRETLGQGIHGWRVTDCTVTMTHSGYSPRQSHAHQGFDKSMSSTGADFRGLTPLVLMDALRQAGTRVHEPLHRFGLEAPADTLGAVLPVLAGLRAVVRTTRMREAVCVLEGLVPAAHVHELGQVLPGLTRGEGELETAFDHYAPVAGGTVPNRPRTDHNPLDRKEYLLNVTRRVGT”, which protein production is on record?
Answer: Its protein production is “failed”.

Question: Which protein production does the source give for “MHTLVFLSTRQVLQCQPAACQALPLLPRELFPLLFKVAFMDKKTVVLRELVHTWPFPLLSFQQLLQECAHCSRALLQERPSTESMQAVILGLTARLHTSEPGASTQPLCRKHALRVLDMTGLLDDGVEQDPGTMSMWDCTAAVARTCIAQQQGGAAEPGPAPIPVEVRVDLRVNRASYAFLREALRSSVGSPLRLCCRDLRAEDLPMRNTVALLQLLDAGCLRRVDLRFNNLGLRGLSVIIPHVARFQHLASLRLHYVHGDSRQPSVDGEDNFRYFLAQMGRFTCLRELSMGSSLLSGRLDQLLSTLQSPLESLELAFCALLPEDLRFLARSPHAAHLKKLDLSGNDLSGSQLAPFQGLLQASAATLLHLELTECQLADTQLLATLPILTQCASLRYLGLYGNPLSMAGLKELLRDSVAQAELRTVVHPFPVDCYEGLPWPPPASVLLEASINEEKFARVEAELHQLLLASGRAHVLWTTDIYGRLAADYFSL” here?
Answer: Its protein production is “failed”.

Question: Which protein production does the source give for “MHTTFTFHLYPWILKYLKGGEGNFKYLHQENPKQEITDSSDKMSFWKDRMLIIPAVDIKDGKCVQLVQGKPGTEQVVLDDPAGVAGRWESLGAETIHVVDLDGALGLEKNTGILKEITERVSVPLQIGGGIRSREYAGKLLDMGFERVILGTMAIENPAIVEELAGEYGSERIMVSLDSRDSRVVIRGWTEKVPFTAEEMARKFQERGAGSILFTNVDFEGLLSGFDLKPVSELVEAVEIPVIYSGGVSSLNDLRMLQGTGVMGVVIGSAIYRGLIDLTEALKYQDLK” here?
Answer: Its protein production is “failed”.

Question: With “MHVLTLDLAPVTPKDAPLLHRVFHLSPSYFALIGMELPTLEDVVRDLQTLEVDPRRRAFLLFLGQEPVGYLDAKLGYPEAEDATLSLLLIREDHQGRGLGRQALERFAAGLDGVRRLYAVVYGHNPKAKAFFQAQGFRYVK” as the sequence, how does the protein production read?
Answer: Its protein production is “failed”.

Question: For “MHYAFSRIRLRSFFGWMIIGVFLIMIPLDLTNVSENTMEVISQITVFFVFPLLWLYVKTNKNNVVFNSFFDKPGRLSWGLIVLATIMGMIFSVGISQIQFYILAHTLPNFLVTMLEDGNVINTSNVYMTIFTFISACVLAPIMEEVIFRGFFLQRMAYKWGIKKAVIISSIIFGLGHFDVIGAFMFGVVMCLLYIKTKNIWTNIAVHALNNLIATSMQFFGGEESGTISITELQAQSNLWIGIGLTVVGLLWLIPYVWKQWRTVKEVGVPPVRFINEQKVVSSSQENEVYSQVILTDRLMAIELPDEAVNKLRLEENDYVTVSVEEDKIVIKKAHNR”, which protein production is on record?
Answer: Its protein production is “failed”.

Question: Which protein production does the source give for “MHYPVLVNPRKPSLSRMPMKKPKRASAAKAKKGRKISASRSKPATKRPAKPPRRGASLDGTKDSAKIIRGLRSKLKAAERRVAELEAAADTDFLLEIPNRRGFERELTRAIAYMKRYRATGALIVLDVDRLKPINDSFGHAAGDEVLKAIVGALTRQVRASDVVGRLGGDEFALLLWNLNETDAKAKAAAFEQTIDELSFVFRSQNVTAGASAGVALLGAHSDAGRALEEADAAMYVRKARRRHEPRIRLVSN” here?
Answer: Its protein production is “failed”.

Question: Which protein production does the source give for “MIAKEFETFLLGQEETFLTPAKNLAVLIDTHNADHATLLLSQMTYTRVPVVTDEKQFVGTIGLRDIMAYQMEHDLSQEIMADTDIVHMTKTDVAVVSPDFTITEVLHKLVDESFLPVVDAEGIFQGIITRKSILKAVNALLHDFSKEYEIRCQ” here?
Answer: The protein production was “not failed”.

Question: For “MIALLPAYLLWVVLSLLEYNRQAREQIQDDIFREREYASVALRGISDAVVSIDTEQVIQYLNPAAEALLGLPAAQLLQRRLKQVAPLHYEFSRQPVQDPIEQAIATQQVVHLAQNCYLKRHNGEKLLVEGAVAPLLGRNGQLIGSVLTFRDTAPIRRRMLAALEASESRLRQHELELARVTRINTMGEMASGIAHEINQPLSAIMSYCQAGLSLLEDDELDMAMLRRALTSSVSQADRAGRIIHRLREFVTQKNQQLAPVQLNQAVHNALSLLDYELHDHDIHIEQNFAPELPLVYADTIQLEQVVLNLARNAVEAMEPTRPWGRLSITTRRQGERVQLIISDNGCGIPPDKLDRIFDPFFSTKPNGMGLGLAICQTAVEAFGGKLIAGNKPGSGAEFIIDLPCAPRDMAVPSGVEA”, which protein production is on record?
Answer: The protein production was “failed”.

Question: With “MIAMDIREIGLRLVGEAIKAADPYRAVLNAVKVSDDKIIVQGKEFEIKGKVYVIALGKAACEMARAIEDILDVEDGVAVTKYGYGKELKRIKVIEAGHPIPDEKSILGAKEALSILNRARENDIVFILISGGGSALFELPEEGISLEDLKLTTDLLLKSGAKIHEINTVRKHISKVKGGKLAKMIKGTGIVLIISDVVGDNLEAIASGPTVKDPTTFEDAKRILELYDIWEKVPESVRLHIERGLRGEVEETLKEDLPNVHNFLIASNSISCEAIAREAQRLGFKAYIMTTTLEGEAKDAGLFIGSIVQEIAERGRPFEPPVVLVFGGETTVTIEGKGGKGGPNQEIALSATRKISDLEALIVAFDTDGTDGPTDAAGGIVDGTTYKKLREKGIDVEKVLKEHNSYEALKKVGGLLFTGPTGTNVNSIVIAIVTSKRGRT” as the sequence, how does the protein production read?
Answer: Its protein production is “not failed”.

Question: Which protein production does the source give for “MIASVASTTKDRLEIVKAFRNKEITILIATSILERGVTFPNVDVFVINSEHPNFTKSALIQMAGRVGRSPERPTGLVSFFHYGKSKAMCQAVREIKKMNQLGCFSLEHHHHHH” here?
Answer: Its protein production is “failed”.

Question: Which protein production does the source give for “MIAVISMSGHVWSQQVPLWSIIIRTIHLIGLTLWLGSLVYLICYAIKVKINQLTSVRRMLLKVNIIAVFMLVFTGILMAIDETNTLTLWNNVSAWSIYLVIKIAGIITMMLLGFYQTMRALRQRQQVHRFALMTELLIGMILIFAGIMMSK” here?
Answer: Its protein production is “failed”.

Question: With “MIDDMAVPLTFTDAAANKVKSLISEEENTDLKLRVYITGGGCSGFQYGFTFDEKVNDGDLTIEKSGVQLVIDPMSLQYLIGGTVDYTEGLEGSRFTVNNPNATSTCGCGSSFSI” as the sequence, how does the protein production read?
Answer: The protein production was “not failed”.
